Laboratory results reported in the nanobody polyreactivity screen of Harvey et al. (2022).

Assay: yeast display, Sf9 membrane polyspecificity reagent, FACS + sequencing; frameworks hold sequencing errors
Method in brief: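 Polyreactivity labels are assigned by the sorting gate from which each nanobody was recovered. The gates were low and high (top ~1%), set on anti-HA fluorescence for expression and streptavidin fluorescence for reagent binding. Before sorting, galactose-induced (36–48 hours) yeast display cells were stained for 1 hour at 4 °C with 10% biotinylated, detergent-solubilized Sf9 membrane reagent.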

In the case of “QVQLVESGGGLVQAGGSLRLSCAASGSIFHYYAMGWYRQAPGKERELVAAISWSGGRTNYADSVKGRFTISRDNAKNTVYLQMKSLKPEDTAVYYCAAGNSFSDRGHRVYFQYYYWGQGTLVTVSS”, the “polyreactivity (PSR sort gate)” value is reported as “high polyreactivity”.
For “QVQLVESGGGLVQAGGSLRLSCAASGSIFIANAMGWYRQAPGKERELFAAITLNGGSTYYADSVKGRFTISRDNAKNTVYLQMNSLKPEDTAVYYCAADWVWVAPQYWIVEYDYRGQGTQVTVSS”, the “polyreactivity (PSR sort gate)” value was “low polyreactivity”.
With “QVQLVESGGGLVQAGGSLRLSCAASGSIFIDNAMGWYRQAPGKEREFVAAISKSGTSTYYADSVKGRFTISRDNAKNTVYLQMNSLKPEDTAVYYCAVRRPRPYSNYYYWGQGTQVTVSS” the “polyreactivity (PSR sort gate)” value was “high polyreactivity”.
With “QVQLVESGGGLVQAGGSLRLSCAASGSIFIDYVMGWYRQAPGTERELVAAISKRGGSTYYADSVKGRFTISRDNAKNTVYLQMNSLKPEDTAVYYCNAYRIGVYTAKDGYWGQGTQVTVSS” the “polyreactivity (PSR sort gate)” value was “high polyreactivity”.
For “QVQLVESGGGLVQAGGSLRLSCAASGSIFIGNAMGWYRQAPGKERELVAAITWSGGSTTYADSVKGRFTISRDNAKNTVYLQMNSLKPEDTAVYYCNASIYQRYDYWGQGTQVTVSS”, the “polyreactivity (PSR sort gate)” value was “low polyreactivity”.
With “QVQLVESGGGLVQAGGSLRLSCAASGSIFIHNAMGWYRQAPGKERELVPGITTGGSTYYADSVKGRFTISRDNAKNTVYLQMNSLKPEDTAVYYCATARSYLTYSYHYDYWGQGTQVTVSS” the “polyreactivity (PSR sort gate)” value was “low polyreactivity”.
For “QVQLVESGGGLVQAGGSLRLSCAASGSIFINYVMGWYRQAPGKERELVAAISSIGDSTYYADSVKGRFTISRDNAKNTVYLQMNSLKPEDTAVYYCNAEIPSLKASPLYRYDYWGQGTKVTVSS”, the “polyreactivity (PSR sort gate)” value was “high polyreactivity”.
In the case of “QVQLVESGGGLVQAGGSLRLSCAASGSIFIPYAMGWYRQAPGKERELVAAISGSGTSTNYADSVKGRFTISRDNAKNTVYLQMNSLKPEDTAVYYCAARLPYGYLRSKFYYWGQGTQVTVSS”, the “polyreactivity (PSR sort gate)” value is reported as “high polyreactivity”.
With “QVQLVESGGGLVQAGGSLRLSCAASGSIFISNAMGWYRQAPGKEWELVAAINWTTGRTRYADSVKGRFTISRDNAKNTVYLQMNSLKPEDTAVYYCAARPYGGGRRSIYYYWGQGHQVTVSS” the “polyreactivity (PSR sort gate)” value was “high polyreactivity”.
With “QVQLVESGGGLVQAGGSLRLSCAASGSIFISNAMGWYRQAPGTERELVAAISRSGARTYYADSVKGRFTISRDNAKNTVYLQMNSLKPEDTAVYYCAVVGYSPYKYDYWGQGTQVTVSS” the “polyreactivity (PSR sort gate)” value was “high polyreactivity”.
For “QVQLVESGGGLVQAGGSLRLSCAASGSIFISYAMGWYRQAPGKERELVAAISRSAGRTYYADSVKGRFTISRDNAKNTVYLQMNSLQPEDTAVYYCAASGYKNGVYTYGYWGQGTQVTVSS”, the “polyreactivity (PSR sort gate)” value was “high polyreactivity”.
With “QVQLVESGGGLVQAGGSLRLSCAASGSIFITYAMGWYIQAPGKERELVTAIRDSGDRTYYADSVKGRFTISRDNAKNTVYLQMNSLKPEDTSVYYCAAVLYSRLYWDRLDYWGQGTQVTVSS” the “polyreactivity (PSR sort gate)” value was “low polyreactivity”.
For “QVQLVESGGGLVQAGGSLRLSCAASGSIFITYAMGWYRQAPGKERELVAAIRDSGDRTYYADSVKGRFTISRDNAKNTVYLQMNSLKPEDTAVYYCAKRAWGSPYGYWGQGTQVTVSS”, the “polyreactivity (PSR sort gate)” value was “low polyreactivity”.
With “QVQLVESGGGLVQAGGSLRLSCAASGSIFITYAMGWYRQPPGKERELVATITSRSGGTYYADSVKGRFTISRDNAQNTVYLQMNSLKPEDTAVYYCNAVYTYPVFHGMGYWGQGTQVTVSS” the “polyreactivity (PSR sort gate)” value was “high polyreactivity”.
In the case of “QVQLVESGGGLVQAGGSLRLSCAASGSIFITYAMVWSRQAPGKERELVAAIRDSGDRTYYADSVKGRFTISRDNAKNTVYLQMNSLKPEDTAVYYCAADYFVQVPDYYYASEYGYWGQGTQVTVSS”, the “polyreactivity (PSR sort gate)” value is reported as “low polyreactivity”.
For “QVQLVESGGGLVQAGGSLRLSCAASGSIFIVNVMGWYRQAPGKERELVAGITTNGGITYYADSVKGRFTISRDNAKNTVYLQMNSLKPEDTAVYYCATRSGSPSSIEMDYWGQGTQVTVSS”, the “polyreactivity (PSR sort gate)” value was “low polyreactivity”.
In the case of “QVQLVESGGGLVQAGGSLRLSCAASGSIFIVYAMGWYRQAPGKERELVAAISYRGGSTYADSVKGRFTISRDNAKNTVYLQMNSLKPEDTAVYYCAADDLSYVGYYYGYVDDDYWGQGTQVTVSS”, the “polyreactivity (PSR sort gate)” value is reported as “high polyreactivity”.
In the case of “QVQLVESGGGLVQAGGSLRLSCAASGSIFIWYSMGWYRQAPGKERELVASITYSAGRTYYADSVKGRFTISRDNAKNTVYLQMNSLKPEDTAVYYCAADSPYVYTLDSYGEGDYWGQGSQVTVSS”, the “polyreactivity (PSR sort gate)” value is reported as “low polyreactivity”.
With “QVQLVESGGGLVQAGGSLRLSCAASGSIFIYYAMGWTRQAPGKERELVATISSDDRTNYTDSVKGRFTISRDNAKNTVYLQMNSLKPEDTAVYYCAADRYWGGRDGPEYDYWGQGTQVTVSS” the “polyreactivity (PSR sort gate)” value was “low polyreactivity”.
With “QVQLVESGGGLVQAGGSLRLSCAASGSIFIYYAMGWYRQAPGKERELVAAISSSGGSTYYADSVKGRFTISRDNAKNTVYLQTNSLKPEDTAVYYCATVPYRYYDDDYWGQGTQVTVSS” the “polyreactivity (PSR sort gate)” value was “high polyreactivity”.
With “QVQLVESGGGLVQAGGSLRLSCAASGSIFIYYAMGWYRQPPGKERELVAAISYSDGDTYYADSVKGRFTISRDNAKNTVYLQMNSLKPEDTAVYYCAAEVTLSYDVGWEDYWGQGTQVTVSS” the “polyreactivity (PSR sort gate)” value was “high polyreactivity”.
In the case of “QVQLVESGGGLVQAGGSLRLSCAASGSIFIYYTMGWYRQAPGKERELVAAISWRGGRTYYADSVKGRFTISRDNAKNTVYLQMNSLKPEDTAVYYCNAQPSVYYGRWGLNYGYWGQGTQVTVSS”, the “polyreactivity (PSR sort gate)” value is reported as “high polyreactivity”.
With “QVQLVESGGGLVQAGGSLRLSCAASGSIFKCNSRGWYRQAPVKERELVAAITFSGSSTFYADSVKGRFTISRDTAKNTVYLQMNSLKTEDSALYYCNAVRRQQFGSWGQGTQGTVSS” the “polyreactivity (PSR sort gate)” value was “high polyreactivity”.
With “QVQLVESGGGLVQAGGSLRLSCAASGSIFKDYAMGWYRQAPGKERELVAAITSGGRTNYADSVKGRFTISRDNAKNTVYLQMNSLKPEDTAVYYCAARKGKETLYHSTPPYYYWGQGTQVTVSS” the “polyreactivity (PSR sort gate)” value was “low polyreactivity”.
With “QVQLVESGGGLVQAGGSLRLSCAASGSIFKFYTMGWYRQAPGKERELVAAISWSGGRTYYADSVKGRFTISRDNAKNTVYLQMNSLKPEDTAVYYCAVPRVGLHGIGSDYWGQGTQVTVSS” the “polyreactivity (PSR sort gate)” value was “high polyreactivity”.
For “QVQLVESGGGLVQAGGSLRLSCAASGSIFKFYTMGWYRQAPGKERELVATISRSGGGTFYADSVKGRFTISGDNSKNTVYLQMNSLKPEDTAVYYCSADPAFTHYPFGYGYWGQGTQVTVSS”, the “polyreactivity (PSR sort gate)” value was “low polyreactivity”.
For “QVQLVESGGGLVQAGGSLRLSCAASGSIFKGNAMGWYRQAPRKERELVATITSSGDSTNYADSVKGRFTISRDNAKNTVYLQMNSLKPEDTAVYYCATEPFRYSLAGGYWGQGTQVTVSS”, the “polyreactivity (PSR sort gate)” value was “low polyreactivity”.
With “QVQLVESGGGLVQAGGSLRLSCAASGSIFKGYAMGWYRQAPGKERELVAAISGGGGSTYYADSVKGRFTISRDNAKNTVYLQMNSLKPEDTAVYYCNRDDSWSTTGAYDYWGQGTQVTVSS” the “polyreactivity (PSR sort gate)” value was “low polyreactivity”.
With “QVQLVESGGGLVQAGGSLRLSCAASGSIFKGYAMGWYRQAPGKERELVASISWRGDNTYYADSVKGRFTISRDYAKNTVYLQMNSLKPEDTAVYYCNAQSREHYFFIYDYWGQGTQVTVSS” the “polyreactivity (PSR sort gate)” value was “high polyreactivity”.
In the case of “QVQLVESGGGLVQAGGSLRLSCAASGSIFKIYAKGWYRQAPGKERELVASITGSGGSTYYADSVKGRFTISRDNAKNTVYLQMNSLKPEDTAVYYCAAAVLGSSKSEVDPDRPEYYYWGQGTQVTVSS”, the “polyreactivity (PSR sort gate)” value is reported as “low polyreactivity”.
For “QVQLVESGGGLVQAGGSLRLSCAASGSIFKIYAMGWYRQAPGKERELVAAITINGGSTYYADSVKGRFTISRDNAKNTVYLLMNSLKPEDTAVYYCAADFFHRAGWYFAYGHWGQGTQVTVSS”, the “polyreactivity (PSR sort gate)” value was “low polyreactivity”.
In the case of “QVQLVESGGGLVQAGGSLRLSCAASGSIFKKYAMGWYRQAPGKERELFAAITRGTYYADSVKGRFTISRDNAKNTVYFQMNSLKPEDTAVYFCNREYWGRGYYRVRGEYDYWGQGTQVTVSS”, the “polyreactivity (PSR sort gate)” value is reported as “low polyreactivity”.
With “QVQLVESGGGLVQAGGSLRLSCAASGSIFKKYAMGWYRQSPGKERELVAAISSTGGSTKYADSVKGRFTISRDNAKNTVYLQMNSLKPEDTAVYYCAVRYKWPYDYWGQGTQVTVSS” the “polyreactivity (PSR sort gate)” value was “high polyreactivity”.
For “QVQLVESGGGLVQAGGSLRLSCAASGSIFKPYAMGWYRQAPGKERELVAAISSSGGSTYYADSVKGRFTISRDNAKNTVYLQMNSLKPEDTAVYYCNADWYYAGYGYWGQGTQVTVSS”, the “polyreactivity (PSR sort gate)” value was “low polyreactivity”.
In the case of “QVQLVESGGGLVQAGGSLRLSCAASGSIFKPYVMGWYRQAPGKERELVAAITSSGVSTYYADSVKGRFTISRDNAKNTVYLQMNSLKPEDTAVYYCAADQYLGRAWRRRGYYWGQGTQVTVSS”, the “polyreactivity (PSR sort gate)” value is reported as “high polyreactivity”.
In the case of “QVQLVESGGGLVQAGGSLRLSCAASGSIFKQNNMGWYRQAPGKERELVAAISSGGSTYYADSVKGRFTISRDNAKNTVYLQMNSLKPEDTAVYYCAKYYDWDYYLPLEGDYWGQGTQVTVSS”, the “polyreactivity (PSR sort gate)” value is reported as “low polyreactivity”.
With “QVQLVESGGGLVQAGGSLRLSCAASGSIFKRYAMGWYRQAPGKERELVAAISTSGGRTYYADSVKGRFTISRDNAKNTVYLQMNRLNQEDTAVYYCAADIWARYYFWGFEHDYWGQGTQVTVSS” the “polyreactivity (PSR sort gate)” value was “low polyreactivity”.
In the case of “QVQLVESGGGLVQAGGSLRLSCAASGSIFKRYARGWYRPAPGKERELVAAISWSGGNTYYADSVKGRFTISRDNSKNTVYLQMNSLKPEDTAVYYCAKRYRGGYYYPYNYWGQGTQVTVSS”, the “polyreactivity (PSR sort gate)” value is reported as “high polyreactivity”.
With “QVQLVESGGGLVQAGGSLRLSCAASGSIFKSYAMGWYRQAPGKERELVAAISGRTGSTYYADSVKGRFTISRDNAKNTVSLQMNSLKPEDTAVYYCAAKSQSLYPFAMNYWGQGTQVTVSS” the “polyreactivity (PSR sort gate)” value was “high polyreactivity”.
In the case of “QVQLVESGGGLVQAGGSLRLSCAASGSIFKSYAMGWYRQAPGKERELVAAISGSGGRTYYADSVKGRFTISRDNAKNTAYLQMNSLKPEDTAVYYCNALASIRTHTGYAYSPPYDYWGQGTQVTVSS”, the “polyreactivity (PSR sort gate)” value is reported as “high polyreactivity”.
In the case of “QVQLVESGGGLVQAGGSLRLSCAASGSIFKTNAMGWYRQAPGKERELVAGISNGGSTNYADSVKGRFTISRDNAKNTVYFQMNSLKPEDTAVYYCAAEYEYLWSQYLTDYGYDSWGQGTQVTVSS”, the “polyreactivity (PSR sort gate)” value is reported as “low polyreactivity”.
With “QVQLVESGGGLVQAGGSLRLSCAASGSIFKVYAMGWYRQAPGTERELVAGITLNGGSTYYADSVKGRFTISRDNAKNNVYLQMNSLKPEDTAVYYCNAVYSYYYRWYYDFDYWGQGTQVTVSS” the “polyreactivity (PSR sort gate)” value was “high polyreactivity”.
With “QVQLVESGGGLVQAGGSLRLSCAASGSIFKYAMGWSRQAPGKERELVAAINQRGGRTYYADSVKGRFTISRDNAKNTVYLQMNSLKPEDTAVYYCNAYYLRTSSTEYDYWGQGTQVTVSS” the “polyreactivity (PSR sort gate)” value was “high polyreactivity”.
